Data published in paper doi:10.1101/2023.11.22.568272, “Sec7 regulatory domains scaffold autoinhibited and active conformations” (bioRxiv, 2023).

Target: the molecule itself
Test: cryo-EM structure; single-particle cryoEM of purified full-length T. terrestris Sec7 with 2 mM fluorinated fos-choline 8; C2 symmetry for the dimer consensus map (5.3 Å), focused monomer map 3.7 Å, composite dimer model

B1: full-length Sec7 from Thielavia terrestris (natural protein)
chain: MEQKLISEEDLNSAVDHHHHHHRIPGLINSSLKFVVSSLDIIAAQAGRNKQLAELAEKALAAIKENDQQLPDPEVVFAPLQLATKSGTIPLTTTALDCIGKLISYSYFSAPSSSATQDGTEQTPLIERAIDTICDCFQGETTLVEIQLQIVKSLLAAVLNDKIIVHGAGLLKAVRQVYNIFLLSRSTANQQVAQGTLTQMVGTVFERVKTRLHMKEARANLGRLKASRSSLAVDRSDDQDSQAGKVDGEDATVETVSDATPSESVDKAGGGKLTLKDLEHRKSFDDSHMGDGPTMVSQVKPMKKASRSVSEQSLQESPQDETPESLDAEDEAYIRDAYLVFRSFCNLSTKILPPDQLYDLRGQPMRSKLISLHLIHTLLNNHITVFTSPLCTIRNTKNNEPTNFLQAIKYYLCLSITRNGASSVDRVFDICCEIFWLMLKYMRSSFKNEIEVFLNEIYLALLARRNAPLSQKLTFVGILKRLCEDPRALVELYLNYDCNQNVDNIFQTIVEDLSRFATASVPITPTQEQQYEESRSKSATAGEWQIKSVLPPPLSVALIATNHEADTELPKEYVMKRTALDSLVETLRSLVHWSQPGRPELNGASGDVQRRTSSDDLGDSIDPSMSETASRMEVPIAPATPVIDDDPDQLEKEKARKTAMTNAIKVFNFKPKHGIKLLIKEGFIPSDKPEDIARFLLREERLDKAQIGEYLGEGDQKNVDIMHAFVDMMDFSKKRFVDALREFLQAFRLPGEAQKIDRFMLKFAHRYVTGNPNAFANADTPYVLAYSVIMLNTDLHSSKVVKRMSKAEFIKNNRGINDNADLPDEYLIGIYDDIASNEIVLKSEREAAAAAGTLPAQSTGLAGLGQAFSNVGRDLQREAYVQQSEEISLRSEQLFRDLYRSQRKSATKGGVKFISATSFKHVGPMFDATWMSFFSTLSSLVQKTHNLDVNKLCLEGMKLATKIACLFDLSTPREAFISMLKNTANLNNPREMQAKNVEALKVLLDLAQTEGNYLKESWKDVLLCISQLDRLQLISGGVDESAVPDVSRARFVPPPRTETGESRKSTSSARRTRPRAHTGPQGVSLEIALESRSDEVIKSVDRIFTNTANLSRDAIIHFARALTEVSWDEIKVSGSNDSPRTYSLQKIVEISYYNMTRVRFEWSHIWDVLGEHFNRVGCHANTAIVFFALDSLRQLSMRFMEIEELAGFKFQKDFLKPFEHVMSNSSNVTVKDMVLRCLIQMIQARGENIRSGWRTMFGVFTVAAREPYESIVNLAYENVTQVYKTRFGVVISQGAFTDLIVCLTEFSKNMRFQKKSLQAMETLKSVIPTMLKTPECPLSQHKPTATTASGSESHSKKAAVQQTRTSVEEGFWFPVLFAFHDVLMTGEDLEVRSNALNYFFETLLRYGGDFPPEFWDILWRQQLYPIFMVLRSRPEMTNALNHEELSVWLSTTMIQALRNMITLFTHYFDALEYMLDRFLELLALCICQENDTIARIGSNCLQQLILQNVTKFTAEHWAKIVGAFCELFERTTAYQLFSATTINSTASLSPPPSGLELGGPLSPTSATAPVDGKSLKINGVETNGQTPGAEPANGDADGNGTAAAAADASAPAATPQPQQGPAQQLEEFKPNNPLQQQPVVVTAARRRFFNRIISRCVLQLLMIETVNELFSNDAVYAQIPSAELLRLMALLKKSFLFAKRFNADKDLRMRLWREGFMKQPPNLLKQESGSAATYVAILFRMFGDTAPDRRGSRADVEAALVPLCRDIIRGYTALDDESQHRNIVAWRPVVVDVLEGYAAFPRDAFAAHIRSFYPLVVELLGKDLGQDLRAALLLVLRRVGEVGLGIEGMGSGGAAAAAAAGAAAASSGQGNGNGAAAAAADSERRSSVLSVPSGPRHTPSMDSLNDDPSRQVMGKAEQKLISEEDLNSAVDHHHHHH
  stoichiometry N: 2
